IC50, decay acceleration activity (DAA) assay, Fold Activity (Compared to CFHT-I62) and Fold Activity data for four substances are collected here from patent US20240358855A1.

One assay concerns the target C3 convertase, C3bBb (UniProt P01024). The assay can be described thus: cell-based or functional assay.
In another assay the target is C3d ligand (UniProt P01024). The assay can be described thus: plate binding assay on C3d, purified protein; reference.
The target in assay [1] is C3b protein (UniProt P01024). The experiment in a line: plate binding ELISA on coated C3b, purified protein; reference.
The target in the next assay is T1, CRP (UniProt P02741).
T1 sequence (looked up): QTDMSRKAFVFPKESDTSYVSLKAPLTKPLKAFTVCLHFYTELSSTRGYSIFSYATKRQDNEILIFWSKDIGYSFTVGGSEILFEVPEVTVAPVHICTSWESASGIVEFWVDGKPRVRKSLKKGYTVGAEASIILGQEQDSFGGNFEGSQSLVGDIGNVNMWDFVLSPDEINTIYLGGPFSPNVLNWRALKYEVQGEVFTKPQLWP
The assay can be described thus: plate binding ELISA on coated CRP, purified protein; reference. On the technique in general: ELISA stands for enzyme-linked immunosorbent assay.

Assay [2] addresses malondialdehyde modified LDL (UniProt P04114). The experiment in a line: plate binding ELISA on coated MDA-LDL, purified protein; reference.
For assay [3] the target is unchanged. The assay can be described thus: plate binding ELISA on coated MDA-LDL; fold vs (-) control pCTM395 supernatant.
The target is the same in assay [4]. The experiment in a line: plate binding ELISA on coated MDA-LDL, HEK293 supernatant; fold vs (-) control pCTM395 supernatant.
Assay [5] concerns the target C3b protein (UniProt P01024). The assay can be described thus: plate binding ELISA on coated C3b, HEK293 supernatant 25 ng/mL; fold vs (-) control pCTM395 supernatant.

Chain of CFHT.0 purified recombinant protein (pCTM134) (P08603 other isoform, or with tags, fused parts or gaps limits assumed): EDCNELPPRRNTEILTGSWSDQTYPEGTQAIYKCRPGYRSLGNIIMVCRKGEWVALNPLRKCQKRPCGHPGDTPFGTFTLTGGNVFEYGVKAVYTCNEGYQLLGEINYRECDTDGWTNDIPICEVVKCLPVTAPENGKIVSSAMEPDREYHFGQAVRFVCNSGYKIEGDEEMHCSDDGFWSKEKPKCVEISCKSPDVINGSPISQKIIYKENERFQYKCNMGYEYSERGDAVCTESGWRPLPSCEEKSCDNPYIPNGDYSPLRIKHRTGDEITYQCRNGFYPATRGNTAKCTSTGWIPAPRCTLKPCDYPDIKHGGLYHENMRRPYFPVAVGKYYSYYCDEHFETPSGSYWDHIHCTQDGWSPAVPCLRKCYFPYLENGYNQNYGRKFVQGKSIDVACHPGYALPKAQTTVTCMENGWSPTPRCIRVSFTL
Chain of C3b protein (P01024 23-667 limits assumed, chain 1 of 2): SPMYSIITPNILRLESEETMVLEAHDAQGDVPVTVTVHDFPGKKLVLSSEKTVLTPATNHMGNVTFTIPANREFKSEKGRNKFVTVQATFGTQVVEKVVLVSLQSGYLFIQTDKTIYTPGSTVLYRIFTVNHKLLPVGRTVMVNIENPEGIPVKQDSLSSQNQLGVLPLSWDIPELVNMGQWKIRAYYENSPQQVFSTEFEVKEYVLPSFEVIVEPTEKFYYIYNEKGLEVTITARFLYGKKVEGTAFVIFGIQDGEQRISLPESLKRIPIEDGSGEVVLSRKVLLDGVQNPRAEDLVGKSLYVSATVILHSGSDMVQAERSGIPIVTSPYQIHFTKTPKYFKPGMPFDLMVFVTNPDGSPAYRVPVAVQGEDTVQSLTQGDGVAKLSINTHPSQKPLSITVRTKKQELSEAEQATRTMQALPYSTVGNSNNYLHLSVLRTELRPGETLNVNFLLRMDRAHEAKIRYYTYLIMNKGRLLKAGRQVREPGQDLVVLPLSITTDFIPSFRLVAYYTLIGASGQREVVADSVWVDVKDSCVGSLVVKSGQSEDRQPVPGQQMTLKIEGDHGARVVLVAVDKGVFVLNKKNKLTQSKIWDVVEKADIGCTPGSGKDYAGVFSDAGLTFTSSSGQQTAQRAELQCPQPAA
Chain of C3b protein (P01024 749-1663 limits assumed, chain 2 of 2): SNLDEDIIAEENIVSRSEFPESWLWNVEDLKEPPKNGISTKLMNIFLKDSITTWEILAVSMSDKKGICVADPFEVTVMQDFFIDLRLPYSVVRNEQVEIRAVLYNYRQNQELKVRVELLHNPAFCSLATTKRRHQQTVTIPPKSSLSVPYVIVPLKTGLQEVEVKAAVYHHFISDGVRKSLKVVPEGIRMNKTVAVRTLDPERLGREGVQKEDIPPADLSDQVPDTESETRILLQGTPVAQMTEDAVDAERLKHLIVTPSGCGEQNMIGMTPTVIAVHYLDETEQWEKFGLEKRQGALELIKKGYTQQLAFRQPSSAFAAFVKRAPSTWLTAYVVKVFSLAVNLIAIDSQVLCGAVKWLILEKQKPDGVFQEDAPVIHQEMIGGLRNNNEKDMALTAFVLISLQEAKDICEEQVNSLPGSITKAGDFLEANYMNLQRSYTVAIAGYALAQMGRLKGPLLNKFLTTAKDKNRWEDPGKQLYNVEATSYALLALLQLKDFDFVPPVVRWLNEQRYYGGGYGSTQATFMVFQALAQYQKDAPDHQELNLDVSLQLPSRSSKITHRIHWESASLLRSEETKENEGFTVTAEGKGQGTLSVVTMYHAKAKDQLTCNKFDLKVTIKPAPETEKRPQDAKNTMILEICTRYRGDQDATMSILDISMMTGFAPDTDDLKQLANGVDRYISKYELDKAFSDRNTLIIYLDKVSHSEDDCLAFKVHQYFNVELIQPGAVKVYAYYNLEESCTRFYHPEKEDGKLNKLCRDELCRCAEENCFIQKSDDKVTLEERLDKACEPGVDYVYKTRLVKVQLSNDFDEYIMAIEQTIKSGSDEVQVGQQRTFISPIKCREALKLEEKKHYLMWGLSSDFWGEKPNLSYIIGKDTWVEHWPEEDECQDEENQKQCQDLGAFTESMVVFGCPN
Chain of C3 convertase, C3bBb (P01024 23-1663 limits assumed, chain 1 of 2): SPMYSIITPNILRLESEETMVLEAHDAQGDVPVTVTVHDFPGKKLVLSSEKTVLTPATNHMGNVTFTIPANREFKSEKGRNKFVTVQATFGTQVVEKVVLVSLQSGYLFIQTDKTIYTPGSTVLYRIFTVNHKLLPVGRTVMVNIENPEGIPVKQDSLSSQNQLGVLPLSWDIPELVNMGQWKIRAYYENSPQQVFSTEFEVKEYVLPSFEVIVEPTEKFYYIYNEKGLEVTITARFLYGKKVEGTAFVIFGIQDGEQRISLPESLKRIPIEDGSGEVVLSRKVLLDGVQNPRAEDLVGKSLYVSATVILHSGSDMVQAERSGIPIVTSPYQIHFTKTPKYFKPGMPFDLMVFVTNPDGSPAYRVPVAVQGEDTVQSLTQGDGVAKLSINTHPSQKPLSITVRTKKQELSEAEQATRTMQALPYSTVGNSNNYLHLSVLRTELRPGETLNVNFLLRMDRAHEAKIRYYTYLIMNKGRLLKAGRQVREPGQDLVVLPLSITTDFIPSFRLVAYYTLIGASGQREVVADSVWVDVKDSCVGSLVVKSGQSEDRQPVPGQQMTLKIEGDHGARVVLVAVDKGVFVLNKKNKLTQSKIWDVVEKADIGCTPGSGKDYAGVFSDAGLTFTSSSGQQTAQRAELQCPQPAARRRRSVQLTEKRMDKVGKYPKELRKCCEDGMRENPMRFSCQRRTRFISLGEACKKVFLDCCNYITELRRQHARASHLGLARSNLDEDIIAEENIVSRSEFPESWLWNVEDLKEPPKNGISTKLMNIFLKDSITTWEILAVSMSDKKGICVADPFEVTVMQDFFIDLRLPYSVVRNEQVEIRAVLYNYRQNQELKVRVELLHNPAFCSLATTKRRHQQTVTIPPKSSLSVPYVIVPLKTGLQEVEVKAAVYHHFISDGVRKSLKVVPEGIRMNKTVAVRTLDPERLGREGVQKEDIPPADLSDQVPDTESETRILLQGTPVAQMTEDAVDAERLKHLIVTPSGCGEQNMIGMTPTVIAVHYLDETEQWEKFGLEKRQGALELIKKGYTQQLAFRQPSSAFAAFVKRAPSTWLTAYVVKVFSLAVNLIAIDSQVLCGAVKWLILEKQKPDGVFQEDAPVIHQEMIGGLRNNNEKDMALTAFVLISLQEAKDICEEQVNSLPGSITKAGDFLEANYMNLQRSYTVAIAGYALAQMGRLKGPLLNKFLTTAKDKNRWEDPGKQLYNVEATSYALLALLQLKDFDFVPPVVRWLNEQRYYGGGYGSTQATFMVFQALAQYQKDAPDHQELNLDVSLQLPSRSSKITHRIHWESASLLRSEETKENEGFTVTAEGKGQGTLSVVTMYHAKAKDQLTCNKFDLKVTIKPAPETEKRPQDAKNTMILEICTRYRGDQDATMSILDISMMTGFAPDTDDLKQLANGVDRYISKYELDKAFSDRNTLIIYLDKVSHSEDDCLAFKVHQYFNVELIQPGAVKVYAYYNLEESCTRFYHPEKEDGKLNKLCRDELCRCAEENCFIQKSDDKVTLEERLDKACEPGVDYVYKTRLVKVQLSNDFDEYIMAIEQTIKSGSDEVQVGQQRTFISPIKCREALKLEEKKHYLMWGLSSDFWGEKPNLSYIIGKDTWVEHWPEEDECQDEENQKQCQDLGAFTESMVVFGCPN
Chain of C3 convertase, C3bBb (P00751 260-764 limits assumed, chain 2 of 2, further chain): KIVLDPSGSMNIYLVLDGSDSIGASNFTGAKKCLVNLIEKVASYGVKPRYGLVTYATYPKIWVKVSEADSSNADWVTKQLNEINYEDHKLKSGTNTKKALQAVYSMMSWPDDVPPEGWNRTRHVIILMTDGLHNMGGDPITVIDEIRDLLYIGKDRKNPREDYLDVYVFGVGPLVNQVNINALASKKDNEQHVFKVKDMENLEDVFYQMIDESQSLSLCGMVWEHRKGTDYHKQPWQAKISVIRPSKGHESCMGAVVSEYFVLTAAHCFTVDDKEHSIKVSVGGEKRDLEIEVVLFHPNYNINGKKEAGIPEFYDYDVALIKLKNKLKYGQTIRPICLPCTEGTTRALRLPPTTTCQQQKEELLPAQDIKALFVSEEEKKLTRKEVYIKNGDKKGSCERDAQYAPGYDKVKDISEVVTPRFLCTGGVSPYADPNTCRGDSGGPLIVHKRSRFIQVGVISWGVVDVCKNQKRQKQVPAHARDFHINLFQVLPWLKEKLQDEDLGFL
Chain of CFHT.0 (pCTM297) (P08603 other isoform, or with tags, fused parts or gaps limits assumed): as the sequence (P08603 other isoform, or with tags, fused parts or gaps limits assumed) above
Chain of rCFHT-I62 Protein (P08603 other isoform, or with tags, fused parts or gaps limits assumed): as above
Chain of His-CFHT.0 (pCTM447) (P08603 other isoform, or with tags, fused parts or gaps limits assumed): as above
Chain of C3d ligand (P01024 1002-1303 limits assumed): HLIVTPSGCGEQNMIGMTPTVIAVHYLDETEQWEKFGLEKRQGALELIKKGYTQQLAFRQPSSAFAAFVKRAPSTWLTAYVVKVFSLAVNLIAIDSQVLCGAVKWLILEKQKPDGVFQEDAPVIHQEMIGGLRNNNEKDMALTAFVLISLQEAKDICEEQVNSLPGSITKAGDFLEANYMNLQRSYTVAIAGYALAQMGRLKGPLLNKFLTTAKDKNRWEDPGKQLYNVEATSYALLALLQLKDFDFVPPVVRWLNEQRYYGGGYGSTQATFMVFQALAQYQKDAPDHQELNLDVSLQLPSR

The substance “CFHT.0 purified recombinant protein (pCTM134) (from UniProt P08603 19-445)” displayed an IC50, decay acceleration activity (DAA) assay with C3 convertase, C3bBb of 1.95 nM. Further, the Fold Activity (Compared to CFHT-I62) (with C3d ligand; with C3b protein [1]; with CRP; in assay [2]) was 1 fold in each case.

In assay [3], “rCFHT-I62 Protein (from UniProt P08603 19-445)” returned a Fold Activity at Highest Dose (Relative to Control) of 52 fold.

“CFHT.0 (pCTM297) (from UniProt P08603 19-445)” returned a Fold Activity at Highest Dose (Relative to Control) in assay [4] of 1.5 fold.

For the substance “His-CFHT.0 (pCTM447) (from UniProt P08603 19-445)”, the Fold Activity at Highest Dose (Relative to Control) is 1.4 fold in assay [4] and 1.5 fold in the assay with C3b protein [5].
